Values quoted from earlier work in PMC10876879, “Sustained silencing peanut allergy by xanthopurpurin is associated with suppression of peripheral and bone marrow IgE-producing B cell” (Frontiers in Immunology, 2024).

Test system: IgE
Design: method as in PMID 15025403, PMID 12637608
Conditions: double-blind, randomized trial, 2003

B1: TNX-901: anti-IgE antibody (antibody, chains of the INN, looked up, V domains shown)
VH: QVQLVQSGAEVKKPGASVKVSCKASGYTFSMYWLEWVRQAPGHGLEWVGEISPGTFTTNYNEKFKARATFTADTSTNTAYMELSSLRSEDTAVYYCARFSHFSGSNYDYFDYWGQGTLVTVSS
VL: DILLTQSPGTLSLSPGERATLSCRASQSIGTNIHWYQQKPGQAPRLLIKYASESISGIPSRFSGSGSGTDFTLTISRLEPEDFAMYYCQQSDSWPTTFGQGTKVEIK
- Threshold of the sensitivity of patients to peanut: significantly increased
